Numbering of substitutions follows the chain as printed. Names and notes keep the numbering of the source.
T1: Soluble human IL-17R (huIL-17R-FpH) (human, UniProt Q96F46 33-320)
T1 construct: also called IL-17R extracellular domain
T1 sequence: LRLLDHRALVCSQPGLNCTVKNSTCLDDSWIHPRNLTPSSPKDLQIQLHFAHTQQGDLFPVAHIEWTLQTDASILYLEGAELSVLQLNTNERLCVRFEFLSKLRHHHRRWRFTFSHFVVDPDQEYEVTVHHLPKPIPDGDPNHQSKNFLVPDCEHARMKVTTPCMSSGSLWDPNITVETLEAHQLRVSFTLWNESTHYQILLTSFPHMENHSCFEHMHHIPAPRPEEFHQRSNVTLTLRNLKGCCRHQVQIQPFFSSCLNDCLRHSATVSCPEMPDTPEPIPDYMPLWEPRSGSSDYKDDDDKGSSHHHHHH

B1: Antibody 10183 (antibody, V domains shown)
VH: QVQLQESGPGLVKPSQTLSLTCTVSGGSISSGDYFWSWIRQLPGKGLEWIGHIHNSGTTYYNPSLKSRVTISVDTSKKQFSLRLSSVTAADTAVYYCARDRGGDYAYGMDVWGQGTTVTVSS
VL: EIVLTQSPGTLSLSPGERATLSCRASQGISRSRLAWYQQKPGQAPSLLIYGASSRATGIPDRFSGSGSGTDFTLTISRLEPEDFAVYYCQQFGSSPWTFGQGTKVEIK
B2: Antibody 4341 (antibody, human IgG1, kappa, V domains shown)
VH: B1 VH
VL: EIVLTQSPGTLSLSPGERATLSCRASQGISRSELAWYQQKPGQAPSLLIYGASSRATGIPDRFSGSGSGTDFTLTISRLEPEDFAVYYCQQFGSSPWTFGQGTKVEIKR
notes: also called LC:Y53E)
B3: Antibody 4241 (antibody, human IgG1, kappa, V domains shown)
VH: B1 VH with A106E
VL: B2 VL with E33A
notes: also called LC:Y53A)
B4: Antibody 10184 (antibody, V domains shown)
VH: B1 VH with A106R
VL: B1 VL
B5: Antibody 16435 (antibody, human IgG2, kappa, V domains shown)
VH: QVQLVQSGAEVKKPGASVKVSCKASGYTFTRYGISWVRQAPGQGLEWMGWISTYSGNTNYAQKLQGRVTMTTDTSTSTAYMELRSLRSDDTAVYYCARAQLYFDYWGQGTLVTVSS
VL: EIVMTQSPATLSVSPGERATLSCRASQSVSSNLAWFQQKPGQAPRLLIYDASTRATGVPARFSGSGSGTEFTLTISSLQSEDFAVYYCQQYDNWPLTFGGGTKVEIKR
notes: also called LC: P66L, D90E
B6: Antibody 16438 (antibody, V domains shown)
VH: B5 VH with A99R, L101Q
VL: EIVMTQSPATLSVSPGERATLSCRASQSVSSNLAWFQQKPGQAPRLLIYDASTRATGVPARFSGSGSGTEFTLTISSLQSEDFAVYYCQQYDNWPLTFGGGTKVEIK
B7: Antibody 16441 (antibody, V domains shown)
VH: B5 VH with L101Q
VL: B6 VL
B8: Antibody 16444 (antibody, human IgG2, kappa, V domains shown)
VH: B5 VH with L101Q
VL: B5 VL with W94A
notes: also called LC: P66L, D90E, W114A
B9: Antibody 16440 (antibody, V domains shown)
VH: B5 VH with L101Q
VL: B6 VL with L46P, E70D
B10: Antibody 16439 (antibody, V domains shown)
VH: B5 VH with A99R, L101Q
VL: B6 VL with W94A

biological target: T2, Soluble human TR2 (huTR2 long-huFc (IgG1)) (human); test: BIAcore solution equilibrium assay: antibody incubated with TR2, free TR2 read on immobilised antibody 16449
T2 construct: also called Trail Receptor 2; TRAIL (huTR2)
T2 sequence (chain, as listed by the source limits assumed): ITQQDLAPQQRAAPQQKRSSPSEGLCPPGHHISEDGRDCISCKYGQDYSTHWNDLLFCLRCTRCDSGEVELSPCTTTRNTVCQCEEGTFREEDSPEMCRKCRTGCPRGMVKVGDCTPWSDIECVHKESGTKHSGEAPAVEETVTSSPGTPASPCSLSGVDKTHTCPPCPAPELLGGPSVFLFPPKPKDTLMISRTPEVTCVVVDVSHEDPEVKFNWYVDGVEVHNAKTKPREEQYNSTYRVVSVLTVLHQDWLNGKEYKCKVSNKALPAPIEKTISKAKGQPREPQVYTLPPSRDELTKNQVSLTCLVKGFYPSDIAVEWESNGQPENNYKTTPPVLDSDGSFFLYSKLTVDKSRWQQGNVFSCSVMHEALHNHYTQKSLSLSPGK

Does B1 bind?
Result: no binding (tested: 50 µM antibody with 10 nM TR2)

Does B2 bind?
Result: no binding (tested: 50 µM antibody with 10 nM TR2)

Does B3 bind?
Result: no binding (tested: 50 µM antibody with 10 nM TR2)

Does B4 bind?
Result: no binding (tested: 50 µM antibody with 10 nM TR2)

biological target: T1, Soluble human IL-17R (huIL-17R-FpH); test: BIAcore solution equilibrium assay: antibody incubated with IL-17R, free IL-17R read on immobilised antibody 16429

Does B5 bind?
Result: no binding (tested: 30 µM antibody with 30 nM IL-17R)

Does B6 bind?
Result: no binding (tested: 30 µM antibody with 30 nM IL-17R)

Does B7 bind?
Result: no binding (tested: 30 µM antibody with 30 nM IL-17R)

Does B8 bind?
Result: no binding (tested: 30 µM antibody with 30 nM IL-17R)

Does B9 bind?
Result: no binding (tested: 30 µM antibody with 30 nM IL-17R)

Does B10 bind?
Result: no binding (tested: 30 µM antibody with 30 nM IL-17R)

Source: patent US20130189283A1 (Amgen, published 2013)
